# What was measured:
# [1] = molecular target: HLA-A*02:01; assay: IEDB peptide-MHC binding, cellular MHC/competitive/fluorescence; ≥ and ≤ were set here for values at or beyond the usual limits of such assays; conditions: source organism: Vaccinia virus WR
# [2] = molecular target: HLA-A*02:02; assay: IEDB peptide-MHC binding, purified MHC/competitive/radioactivity; ≥ and ≤ were set here for values at or beyond the usual limits of such assays
# [3] = molecular target: HLA-A*02:03; assay: as above
# [4] = molecular target: HLA-A*02:06; assay: as above
# [5] = molecular target: HLA-A*68:02; assay: as above
# [6] = molecular target: HLA-A*02:01; assay: as above
# [7] = source organism: Vaccinia virus WR
# [8] = source organism: Influenza A virus
# [9] = source organism: Mammarenavirus brazilense
# [10] = source organism: Hepacivirus hominis
Sequence,"IC50 [2, 7] [nM]","IC50 [3, 7] [nM]","IC50 [4, 7] [nM]","IC50 [5, 7] [nM]","IC50 [6, 7] [nM]",further results
AVKFAEESYT,1760,1470,2260,2290,–,IC50 [1]: 7830 nM
ITRLEVIGLT,2210,219,967,1180,–,IC50 [1]: 6470 nM
TIVSRSSRGV,4700,11,3740,1260,–,IC50 [1]: 11300 nM
ETMYLTMKAI,1320,25,3580,4,–,IC50 [1]: 6580 nM
IAIFNNRNLA,3360,1480,890,1490,–,IC50 [1]: 6300 nM
LVAEHRFENM,2050,462,723,1400,–,IC50 [1]: ≥ 70000 nM
LVFNSISARA,1270,254,702,168,–,IC50 [1]: 15900 nM
NLWNTFTRL,–,–,–,–,–,IC50 ([6]; source organism: SARS-CoV1): 6.9 nM; IC50 ([2]; source organism: SARS-CoV1): 24 nM; IC50 ([3]; source organism: SARS-CoV1): 194 nM; IC50 ([4]; source organism: SARS-CoV1): 166 nM; IC50 ([5]; source organism: SARS-CoV1): 391 nM
AVITETIPI,324,43,6.5,60,467,–
PTSETMYLTM,862,191,915,4210,529,–
IVAALVFLI,–,–,–,–,–,IC50 ([6]; source organism: SARS-CoV1): 2.1 nM; IC50 ([2]; source organism: SARS-CoV1): 0.14 nM; IC50 ([3]; source organism: SARS-CoV1): 15 nM; IC50 ([4]; source organism: SARS-CoV1): 1.8 nM; IC50 ([5]; source organism: SARS-CoV1): 0.58 nM
FICNLLLLFV,–,–,–,–,–,IC50 ([6]; source organism: SARS-CoV1): 2.1 nM; IC50 ([2]; source organism: SARS-CoV1): 2.5 nM; IC50 ([3]; source organism: SARS-CoV1): 15 nM; IC50 ([4]; source organism: SARS-CoV1): 4 nM; IC50 ([5]; source organism: SARS-CoV1): 1070 nM
IVPEFAKQYV,10,18,15,3.5,5,–
YLSSVLLAL,–,–,–,–,–,IC50 ([6]; source organism: SARS-CoV1): 0.55 nM; IC50 ([2]; source organism: SARS-CoV1): 0.14 nM; IC50 ([3]; source organism: SARS-CoV1): 0.31 nM; IC50 ([4]; source organism: SARS-CoV1): 8.2 nM; IC50 ([5]; source organism: SARS-CoV1): 10 nM
FAISYCRAFI,105,38,35,1.7,1970,–
WLVIGVAFL,–,–,–,–,–,IC50 ([6]; source organism: SARS-CoV1): 35 nM; IC50 ([2]; source organism: SARS-CoV1): 2.6 nM; IC50 ([3]; source organism: SARS-CoV1): 0.94 nM; IC50 ([4]; source organism: SARS-CoV1): 180 nM; IC50 ([5]; source organism: SARS-CoV1): 127 nM
NIISYIILFI,123,133,72,25,156,–
TTIGTIAGGV,741,43,84,0.2,978,–
WISFAISCFL,–,–,–,–,–,"IC50 [6, 8]: 3510 nM; IC50 [2, 8]: 230 nM; IC50 [3, 8]: 355 nM; IC50 [4, 8]: 819 nM; IC50 [5, 8]: 364 nM"
ILSCIFAFI,0.79,3.1,8.8,1.3,1.8,–
TSLGLLYTV,–,–,–,–,–,"IC50 [6, 9]: 115 nM; IC50 [2, 9]: 934 nM; IC50 [3, 9]: 405 nM; IC50 [4, 9]: 4.2 nM; IC50 [5, 9]: 13 nM"
GLMWLSYFV,–,–,–,–,–,IC50 ([6]; source organism: SARS-CoV1): 0.71 nM; IC50 ([2]; source organism: SARS-CoV1): 0.2 nM; IC50 ([3]; source organism: SARS-CoV1): 0.82 nM; IC50 ([4]; source organism: SARS-CoV1): 0.97 nM; IC50 ([5]; source organism: SARS-CoV1): 44 nM
KTANNYETI,37,38,329,1320,2240,–

Sequence,"IC50 [2, 7] [nM]","IC50 [3, 7] [nM]","IC50 [4, 7] [nM]","IC50 [5, 7] [nM]","IC50 [6, 7] [nM]",further results
ILMTHFFSIL,–,–,–,–,–,"IC50 [6, 10]: 44 nM; IC50 [2, 10]: 35 nM; IC50 [3, 10]: 69 nM; IC50 [4, 10]: 101 nM; IC50 [5, 10]: 3970 nM"
RVTTELNIV,2460,116,46,481,818,–
IVVALSSLV,27,3.9,8.2,5.4,108,–
VQEFIFSAL,419,466,198,552,614,–
IISSKQYPA,164,612,1160,3580,410,–
VMYAFTTPL,0.57,1.3,5.7,112,0.87,–
FTNSQIFNII,143,457,1200,16,1570,–
FLAFLLFLVL,–,–,–,–,–,IC50 ([6]; source organism: SARS-CoV1): 11 nM; IC50 ([2]; source organism: SARS-CoV1): 13 nM; IC50 ([3]; source organism: SARS-CoV1): 245 nM; IC50 ([4]; source organism: SARS-CoV1): 2000 nM; IC50 ([5]; source organism: SARS-CoV1): 3810 nM
IIPFIAYFVL,715,4730,852,76,991,–
FVFTLTVPS,–,–,–,–,–,"IC50 [6, 8]: 514 nM; IC50 [2, 8]: 394 nM; IC50 [3, 8]: 270 nM; IC50 [4, 8]: 18 nM; IC50 [5, 8]: 25 nM"
KVTGSYNLV,66,43,193,538,754,–
SIFVSTMPV,37,6.6,82,10,40,–
QIFNIISYII,288,206,743,332,355,–
LLLWISVKV,–,–,–,–,–,IC50 ([6]; source organism: SARS-CoV1): 13 nM; IC50 ([2]; source organism: SARS-CoV1): 94 nM; IC50 ([3]; source organism: SARS-CoV1): 198 nM; IC50 ([4]; source organism: SARS-CoV1): 10 nM; IC50 ([5]; source organism: SARS-CoV1): 2740 nM
TLGVYDYLV,–,–,–,–,–,IC50 ([6]; source organism: SARS-CoV1): 2.7 nM; IC50 ([2]; source organism: SARS-CoV1): 0.25 nM; IC50 ([3]; source organism: SARS-CoV1): 936 nM; IC50 ([4]; source organism: SARS-CoV1): 75 nM; IC50 ([5]; source organism: SARS-CoV1): 157 nM
YVHEGVSYEV,13,71,9.1,14,83,–
KLLIAILGPL,–,–,–,–,–,"IC50 [6, 10]: 67 nM; IC50 [2, 10]: 12 nM; IC50 [3, 10]: 5.9 nM; IC50 [4, 10]: 12 nM; IC50 [5, 10]: 4230 nM"
NVIEDITFL,146,300,26,31,304,–
YNAELLVLL,–,–,–,–,–,"IC50 [6, 8]: 609 nM; IC50 [2, 8]: 118 nM; IC50 [3, 8]: 1790 nM; IC50 [4, 8]: 474 nM; IC50 [5, 8]: 44 nM"
FVDGVPFVV,–,–,–,–,–,IC50 ([6]; source organism: SARS-CoV1): 0.97 nM; IC50 ([2]; source organism: SARS-CoV1): 9.6 nM; IC50 ([3]; source organism: SARS-CoV1): 86 nM; IC50 ([4]; source organism: SARS-CoV1): 0.91 nM; IC50 ([5]; source organism: SARS-CoV1): 168 nM
AISYCRAFI,17,149,146,98,169,–
LIVNSVLLFL,–,–,–,–,–,IC50 ([6]; source organism: SARS-CoV1): 27 nM; IC50 ([2]; source organism: SARS-CoV1): 3.7 nM; IC50 ([3]; source organism: SARS-CoV1): 90 nM; IC50 ([4]; source organism: SARS-CoV1): 11 nM; IC50 ([5]; source organism: SARS-CoV1): 169 nM
GLSDRVVFV,–,–,–,–,–,IC50 ([6]; source organism: SARS-CoV1): 3.1 nM; IC50 ([2]; source organism: SARS-CoV1): 1 nM; IC50 ([3]; source organism: SARS-CoV1): 1.1 nM; IC50 ([4]; source organism: SARS-CoV1): 69 nM; IC50 ([5]; source organism: SARS-CoV1): 1170 nM

Sequence,"IC50 [2, 7] [nM]","IC50 [3, 7] [nM]","IC50 [4, 7] [nM]","IC50 [5, 7] [nM]","IC50 [6, 7] [nM]",further results
FTILEYLYIM,355,3200,40,2170,95,–
MQIRGFVYFV,–,–,–,–,–,"IC50 [6, 8]: 15 nM; IC50 [2, 8]: 19 nM; IC50 [3, 8]: 3.6 nM; IC50 [4, 8]: 10 nM; IC50 [5, 8]: 25 nM"
IAVITETIPI,515,32,1,154,53,–
MMNERDVSV,0.44,0.27,64,566,1.1,–
TMADLVYAL,–,–,–,–,–,IC50 ([6]; source organism: SARS-CoV1): 6.5 nM; IC50 ([2]; source organism: SARS-CoV1): 0.18 nM; IC50 ([3]; source organism: SARS-CoV1): 16 nM; IC50 ([4]; source organism: SARS-CoV1): 47 nM; IC50 ([5]; source organism: SARS-CoV1): 20 nM
TVQEFIFSAL,81,90,44,7.8,321,–
RVFKKIMSI,350,0.18,75,170,80,–
GILGFVFTLT,–,–,–,–,–,"IC50 [6, 8]: 640 nM; IC50 [2, 8]: 960 nM; IC50 [3, 8]: 911 nM; IC50 [4, 8]: 618 nM; IC50 [5, 8]: 730 nM"
AVLSEYETMV,0.76,1.5,24,1770,9.7,–
KIMEIVSHL,79,10,30,1070,76,–
KVLSIMAFIL,2.3,684,19,2970,88,–
DLNIFMTLV,1910,556,2190,192,1120,–
FVSTMPVET,1220,391,1540,325,841,–
FTILEYLYI,1560,169,267,22,68,–
ATICLKNEGV,436,71,42,87,239,–
IITILQDIV,827,666,658,1070,109,–
YVSVMNFIPI,341,152,0.11,55,127,–
AADLTQIFEV,1240,404,11,4350,17,–
NLLLLFVTI,–,–,–,–,–,IC50 ([6]; source organism: SARS-CoV1): 201 nM; IC50 ([2]; source organism: SARS-CoV1): 436 nM; IC50 ([3]; source organism: SARS-CoV1): 1600 nM; IC50 ([4]; source organism: SARS-CoV1): 456 nM; IC50 ([5]; source organism: SARS-CoV1): 755 nM
AAIDRQVSV,933,19,15,1440,1470,–
LLSCISVPV,–,–,–,–,–,"IC50 [6, 10]: 2.5 nM; IC50 [2, 10]: 1.4 nM; IC50 [3, 10]: 4.7 nM; IC50 [4, 10]: 17 nM; IC50 [5, 10]: 15 nM"
TILDDNLYKV,1080,1630,49,1420,239,–
NVSRVVECL,133,938,1030,28,4110,–

# Reference: the Immune Epitope Database (IEDB)
